Patent US20220396632A1 (VERSEAU THERAPEUTICS, published 2022)
Residue numbers refer to the chain shown, from its start.

B1: 5E12 (antibody, V domains shown)
VH: EIQLQQSGAELVRPGASVKLSCTASGFNIKDDYIHWVKQRPEQGLEWIGRIDPANGNTKSAPKFQDKATITADTSSNTAYLHLSSLTSEDTAVYYCSIRFAYWGQGTLVTVSA
VL: DVVMTQTPLSLSVSLGDQASISCRSSQSLVYRNGDTYLHWFLQKPGQSPKLLIYKVSNRFSGVPDRFSGSGSGTDFTLKISRVEAEDLGIYFCSQNTHVPYTFGGGTKLEIK
notes: Mouse hybridoma mAb; only variable domains given
B2: 18F02 (antibody, V domains shown)
VH: QVQLQQPGAELVKPGASVKLSCKASGYTFTSYWMHWVKQRPGQGLEWIGMIHPNSGRTNYNEKFKSKATLTVDKSSSTAYMQLSSLTSEDSAVYYCARSDYWGQGTTLTVSS
VL: DIVMTQAAFSNPVTLGTSASISCRSSKSLLHSDGITYLYWFLQRPGQSPQLLIYRMSNLASGVPDRFSGSGSGTDFTLRISRVEAEDVGVYYCAQMLEFPRTFGGGTKLEIK
notes: From mouse immunisation; only variable domains given
B3: 16L15 (antibody, V domains shown)
VH: DVKLVESGGGLVKLGGSLKLSCAASGFTFSSYYMSWVRQTPEKRLEWVATISNGGGSTYYPDSVKDRFTISRDNAKNTLYLQMSSLNSEDTAVYYCAKPLYYSNPWFAYWGQGTLVTVSA
VL: DVLLTQTPLSLPVSLGDQASISCRSSQSIVHSNGNTYLEWYLQKPGQSPKLLIYKVSNRFSGVPDRFSGSGSGTDFTLKISRVEAEDLGVYYCFQGSHVPRTFGGGTKLEIK
notes: as for B2
B4: 19I01 (antibody, V domains shown)
VH: EVQLVESGGGLVKPGGSRKLSCAASGFTFSDYGMHWVRQAPEKGLEWVAYISSGSSTIYYADTVKGRFTISRDNAKNTLFLQMTSLRSEDTAMYYCARGVDGYWGQGTTLTVSS
VL: DVVMTQTPLSLPVSLGDQASISCRSSQSLVHSNGNTYLHWYLQKPGQSPKFLIYKVSNRFSGVPDRFSGSGSGTDFTLKISRVEAEDLGVYFCSQTTHVPLTFGAGTKLELK
notes: From mouse immunisation; only variable domains given; also called 19101
B5: 2E12 (antibody, V domains shown)
VH: QVQLQQSGAELARPGASVKLSCKASGYTFTNYGLNWVKQRTGQGLEWIGEIYPRSGNTYYNEKFKGKATLTADKSSSTAYMQLSSLTSEDSAVYFCATEGAYWGQGTLVTVSA
VL: DIVMTQTPLTLSVTIGQPASISCKSSQSLLHGNGKTYLNWLLQRPGQSPKLLIYLVSKLESGIPDRFSGSGSGTDFTLEISRVEAEDLGIYYCLQSTHFPRTFGGGTKLEIK
notes: as for B1
B6: 10F01 (antibody, IgG4, V domains shown)
VH: EVQLVQSGGGLVQPGGSLRLSCAASGFTFSSYAMSWVRQAPGKGLEWVSALRGGDGGTYHADSVKGRFTISGDSSKNTLYLQMNSLRAEDTAVYYCARRMVGAAYAFDIWGQGTMVTVSS
VL: LPVLTQPHSVSESPGKTVTISCTRSSGSIADNFVQWYRQRPGSAPTTVIYEGDQRPSGVPGRFSGSIDSSSNSASLTISGLQTDDEADYYCQSFDSYNRRTHVVFGGGTKLTVL
B7: 03D07 (antibody, IgG4, V domains shown)
VH: EVKLLESGGGLVQPGGSLRLSCAASGFTFSSYALSWVRQAPGKGLEWVSAISGSGGNTYYADSVKGRFTISRDNSKNTLYLQMNSLRAEDTAVYYCAKVVGATNYWGQGTLVTVSS
VL: DIVMTQTPLSLPVTLGQPASISCRSSQSLVYSDGHTYLSWFHQRPGQSPRRLIYKVSIRDSGVPDRFSGSGSGTDFTLKISRVEAEDVGVYYCMQRLQIPLTFGGGTKVEIK
B8: 20I15 (antibody, V domains shown)
VH: EVKLVESGGGLVQPGGSLSLSCAASGFTFTDYYMSWVRQPPGKALEWLGFIRNKANGYTTEYSASVKGRFTISRDNSQSILYLQMNALRAEDSATYYCARTYLRRGYFDVWGTGTTVTVSS
VL: DIVLTQSPASLAVSLGQRATISCRASKSVSTSGYSYMHWFQQKPGQPPKLLIYLASNLESGVPARFSGSGSGTDFTLNIHPVEEEDAATYYCQHSRELPLTFGAGTKLELK
notes: From mouse immunisation; only variable domains given; also called 20115
B9: 43B6 (antibody, V domains shown)
VH: EVQLQQSGPDLVKPGALVKISCKASGYSFTAYYIHWVKQSHGKSLEWIGRVNPNTGGTSYNPKFKGKAILNVDKSSSTAYMELRSLTSEDSAVYYCARSGSPYYRYDDWGQGTTLTVSS
VL: ENVLTQSPAIMSASPGEKVTMTCRASSTVNSTYLHWFQQKSGASPKLWIYGSSNLASGVPARFSGSGSGTSYSLTISSVEAEDAATYYCQQYSGYPLTFGAGTTLELK
notes: Control anti-PSGL-1 mAb, recombinant; only variable domains given; also called 43B3
B10: 9F9 (antibody, V domains shown)
VH: EVQLVETGGGLVQPKGSLKLSCAASGFTFNTNAMNWVRQAPGKGLEWVARIRSKSNNYATYYADSVKDRFTISRDDTQSMIYLQMNNLKTEDTGMYYCVRGGSYWYFDVWGAGTTVTVSS
VL: B3 VL with L4M, H31N, R101W
notes: Control anti-PSGL-1 mAb, recombinant; only variable domains given; also called 9F6
B11: 16E17 (antibody, V domains shown)
VH: QIQLVQSGPELKKPGETVKISCKASGYAFTTYGMSWVKQAPGKGLKWMGWINTYSGVPKYADDFKGRFAFSLETSASTAYLHINNLKNEDTATYFCGRHYYGSSYFDYWGQGTTLTVSS
VL: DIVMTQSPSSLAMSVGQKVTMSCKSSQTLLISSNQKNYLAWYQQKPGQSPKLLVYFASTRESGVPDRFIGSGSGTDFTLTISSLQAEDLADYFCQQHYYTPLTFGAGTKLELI
notes: as for B2
B12: 18K07 (antibody, V domains shown)
VH: QIQLVQSGPELKKPGETVKISCEASGYTFTTYGMNWVKQAPGKGLKWMGWINTYSGVPTYADDFQGRFAFSVETSATTAYLQINNLKNEDAATYFCARSDDTYYGFAYWGQGTLVTVSA
VL: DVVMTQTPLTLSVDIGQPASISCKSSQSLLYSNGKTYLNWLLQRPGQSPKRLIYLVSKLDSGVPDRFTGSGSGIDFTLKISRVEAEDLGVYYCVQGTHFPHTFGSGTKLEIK
notes: as for B2
B13: 19L04 (antibody, IgG4, V domains shown)
VH: B11 VH with A28T, K59T, H82Q, N88I, G97A, S104H
VL: DIMMTQSPSSLAMSVGQKVTLRCKSSQSLLNSSNQKNYLAWYQQKPGQSPKLLVYFASTRESGVPVRFIGSGSGTDFTLTISSMQAEDLADYFCQQHYFSPLTFGAGTKLELK
notes: as for B2
B14: 19N05 (antibody, V domains shown)
VH: B11 VH with A28T, K59T, Y60F, H82Q, Y94F, G97A, H99N, S103N, S104H
VL: DVQITQSPSYLAASPGETISINCRASNNINKYLAWYQEKPGKTNKLLIYSGSTLQSGIPSRFSGSGSGTDFTLTISSLEPEDFAMYHCQQHNYYPLTFGAGTKLELK
notes: as for B2

Target: T1, Sulfotyr fibrinogen γ peptide (not fully specified; Y8 and Y12 sulfated (SO3); C-terminal biotin)
T1 construct: also called Fibrinogen gamma peptide; human sulfotyrosinylated fibrinogen peptide
T1 peptide: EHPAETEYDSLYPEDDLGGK
Experiment: ELISA, 50 nM mAb
Method: Recombinant PSGL-1-hFc1 chimera protein consisting of PSGL-1's extracellular domain (ECD) served as a positive control. […] Primary antibody was added (25 ul per well) in duplicate at 50 nM in assay buffer (blocking buffer containing 0.05% Tween®20) into test and control (just blocked) wells and the plate incubated for 45 min at 37° C.

Going from B1 to B2, the “binding normalized to PSGL-1” value rises from 0.03 to 0.21.

Going from B3 to B4, the “binding normalized to PSGL-1” value falls from 0.11 to -0.01.

Going from B5 to B6, the “binding normalized to PSGL-1” value falls from 0.76 to 0.06.

First: B7
Second: B8
The “binding normalized to PSGL-1” value of the first is higher: 0.49 for the first, 0.37 for the second.

B4: no binding (tested: 50 nM).

target: T2, Recombinant human PSGL-1(ECD)-hFc1 (R&D Systems, Cat. 3345-PS) (human, UniProt Q14242 42-305); experiment: blocking ELISA vs P-selectin-Fc
T2 construct: Bought; Gln42-Val295 counted on AAC50061; also called PSGL-1-Fc; PSGL-1-hFc1 chimera; not shown: human IgG1 Fc, Pro100-Lys330
T2 sequence: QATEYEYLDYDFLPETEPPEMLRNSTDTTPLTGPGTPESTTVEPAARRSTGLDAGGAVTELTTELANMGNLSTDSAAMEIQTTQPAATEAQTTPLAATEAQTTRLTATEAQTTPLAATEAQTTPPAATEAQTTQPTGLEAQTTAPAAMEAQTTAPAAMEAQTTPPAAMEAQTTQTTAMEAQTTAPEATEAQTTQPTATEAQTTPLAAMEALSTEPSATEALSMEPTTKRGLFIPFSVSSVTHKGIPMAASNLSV
Method: A typical selectin blocking ELISA assay involved coating high binding half-well plates (Corning, Cat. #3690) with 2.5 ug/mL/25 ul per well of recombinant PSGL-1-Fc protein (R&D Systems, Cat #3345-PS) in PBS, pH 7.4, overnight at 4° C. […] Antibody (test and controls) was serially diluted (25 ul/well) in duplicate in assay buffer (3% BSA in wash buffer) into appropriate wells and the plate incubated for 45 min at 37° C. […] The plate was washed ×3 and HRP-conjugated streptavidin was added in assay buffer [25 ul per well; (Jackson Immunoresearch, Cat. #016-030-084)] and the plate incubated for 45 min at 37° C. […] For each antibody, an IC50 value was determined from sigmoidal fitted titration curves.

Compared with B1, B2 is higher in “% max Block” value: 0% for the first, 100% for the second.

B3 and B4 are the same in “% max Block” value: 100% for the first, 100% for the second.

First: B5
Second: B6
The “% max Block” value of the first is lower: 0% for the first, 100% for the second.

Going from B7 to B8, the “% max Block” value falls from 100% to 52%.

B9 and B10 are the same in “% max Block” value: 100% for the first, 100% for the second.

B11 and B12 are the same in “% max Block” value: 0% for the first, 0% for the second.

B13 and B14 are the same in “% max Block” value: 0% for the first, 0% for the second.

Compared with B2, B3 is 1.7-fold higher in IC50: 6000 pM for the first, 10000 pM for the second.

B4 and B6 are the same in IC50: 4000 pM for the first, 4000 pM for the second.

Compared with B7, B8 is 20-fold higher in IC50: 5000 pM for the first, 100000 pM for the second.

B9 and B10 are within 1.5-fold of each other in IC50: 8000 pM for the first, 10000 pM for the second.

Target: T3, Scrambled Y42,52,63(SO3) PSGL-1(42-62) biotin peptide (sulfotyrosine at peptide positions 1, 11 and 22; C-terminal Lys-biotin)
T3 peptide: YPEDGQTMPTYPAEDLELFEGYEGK
Experiment: ELISA, immobilized biotin peptide
Summary of the method: (§1)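 In this ELISA, half-well high binding plates (Corning Cat. #3690) received 3 ug/mL/25 ul per well of biotin-tagged PSGL-1 peptides covering residues 42 to 62, diluted in PBS, pH 7.4, and coated overnight at 4° C. Duplicate readings for each antibody were averaged and the average assay background was subtracted. PSGL-1 protein or peptide was the positive control.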

B7: no binding (tested: 20 nM).

Target: T4, Biotin Y46,48,51(SO3) PSGL-1(42-62) peptide (human, sulfotyrosine at Y46, Y48 and Y51; C-terminal Lys-biotin)
T4 construct: also called fully sulfated N-terminal PSGL-1 peptide
T4 peptide: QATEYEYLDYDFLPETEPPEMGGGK
Experiment: ELISA, immobilized biotin peptide
Summary of the method: as §1

B1 and B2 are within 1.5-fold of each other in EC50: 633 pM for the first, 658 pM for the second.

B3 and B4 are within 1.5-fold of each other in EC50: 699 pM for the first, 844 pM for the second.

Going from B5 to B8, the EC50 falls from 870 pM to 486 pM (1.8-fold).

First: B6
Second: B7
The “A450nm, 20 nM mAb” value of the first is lower: 2.39 A450nm for the first, 2.73 A450nm for the second.

Target: T5, Biotin PSGL-1(42-62) peptide, unmodified (human, C-terminal Lys-biotin)
T5 construct: Residues 42-62 followed by GGGK-biotin; also called WT; wild-type
T5 peptide: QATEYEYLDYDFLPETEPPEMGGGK
Experiment: ELISA, immobilized biotin peptide
Summary of the method: as §1

B1 and B2 are within 1.5-fold of each other in EC50: 539 pM for the first, 702 pM for the second.

B3 and B4 are within 1.5-fold of each other in EC50: 695 pM for the first, 844 pM for the second.

Going from B5 to B7, the EC50 rises from 694 pM to over 500000 pM. The first is the more potent here.

B8 gave an EC50 of about 300000 pM.
